Data from paper PMC12618243 (Nature Structural & Molecular Biology, 2025).

What was measured:
[1] = target: T1, OSH6 (Saccharomyces cerevisiae, UniProt Q02201); assay: SEC coelution of IST2fl and OSH6; format: binding, S. cerevisiae
T1 sequence (Q02201 1-448): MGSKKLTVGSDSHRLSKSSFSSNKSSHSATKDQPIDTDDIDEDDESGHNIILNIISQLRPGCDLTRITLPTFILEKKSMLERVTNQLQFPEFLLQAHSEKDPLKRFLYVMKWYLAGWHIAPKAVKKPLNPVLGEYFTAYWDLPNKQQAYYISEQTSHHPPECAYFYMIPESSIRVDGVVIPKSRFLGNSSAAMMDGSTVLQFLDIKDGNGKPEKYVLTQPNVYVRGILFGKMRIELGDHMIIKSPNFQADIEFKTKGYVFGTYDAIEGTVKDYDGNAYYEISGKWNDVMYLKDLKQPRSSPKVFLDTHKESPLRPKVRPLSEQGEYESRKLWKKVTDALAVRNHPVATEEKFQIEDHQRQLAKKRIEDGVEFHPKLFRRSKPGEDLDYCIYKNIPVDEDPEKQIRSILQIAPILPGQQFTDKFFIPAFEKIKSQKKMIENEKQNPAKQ

[2] = cited from earlier work
[3] = tested on: S. cerevisiae ist2;psd1-KO strain (AWY327); assay: Yeast complementation; format: cell-based; details: 2% galactose, 30 °C, 3–4 days

B1: IST2: full-length wild-type IST2, 946 residues, S. cerevisiae (protein)
chain: MSQTITSLDPNCVIVFNKTSSANEKSLNVEFKRLNIHSIIEPGHDLQTSYAFIRIHQDNAKPLFSFLQNLDFIESIIPYHDTELSDDLHKLISISKSKILEAPKQYELYNLSNLTNNPKQSLYFAFLQNYIKWLIPFSFFGLSIRFLSNFTYEFNSTYSLFAILWTLSFTAFWLYKYEPFWSDRLSKYSSFSTIEFLQDKQKAQKKASSVIMLKKCCFIPVALLFGAILLSFQLYCFALEIFIKQIYNGPMISILSFLPTILICTFTPVLTVIYNKYFVEPMTKWENHSSVVNAKKSKEAKNFVIIFLSSYVPLLITLFLYLPMGHLLTAEIRTKVFNAFSILARLPTHDSDFIIDTKRYEDQFFYFIVINQLIQFSMENFVPSLVSIAQQKINGPNPNFVKAESEIGKAQLSSSDMKIWSKVKSYQTDPWGATFDLDANFKKLLLQFGYLVMFSTIWPLAPFICLIVNLIVYQVDLRKAVLYSKPEYFPFPIYDKPSSVSNTQKLTVGLWNSVLVMFSILGCVITATLTYMYQSCNIPGVGAHTSIHTNKAWYLANPINHSWINIVLYAVFIEHVSVAIFFLFSSILKSSHDDVANGIVPKHVVNVQNPPKQEVFEKIPSPEFNSNNEKELVQRKGSANEKLHQELGEKQPASSANGYEAHAATHANNDPSSLSSASSPSLSSSSSSSKTGVVKAVDNDTAGSAGKKPLATESTEKRNSLVKVPTVGSYGVAGATLPETIPTSKNYYLRFDEDGKSIRDAKSSAESSNATNNNTLGTESKLLPDGDAVDALSRKIDQIPKIAVTGGENNENTQAKDDAATKTPLIKDANIKPVVNAAVNDNQSKVSVATEQTKKTEVSTKNGPSRSISTKETKDSARPSNNNTTTTTTTDATQPHHHHHHHRHRDAGVKNVTNNSKTTESSSSSSAAKEKPKHKKGLLHKLKKKL
modifications: left off: SBP, N-terminal, state not stated | myc, N-terminal, state not stated
Coelution as a complex on SEC (in words) [1]: coelute as a complex on size-exclusion chromatography
Scrambling activity, previous publication (in words) [2]: refuting scrambling activity
Growth complementation (in words) [3]: growth deficit can be alleviated
